Measured values published in patent publication US20090318350A1, “PAN-HER ANTAGONISTS AND METHODS OF USE” (published 2009).

What was measured:
[1] = target: human epidermal growth factor receptor (EGFR) (human, UniProt P00533); test: cell-based or functional assay
HER3 receptor = HER3 receptor (human, UniProt P21860); test: cell-based or functional assay

| Binder | Calculated cell proliferation (EC50; picomolar) [1] [picomolar] | Calculated cell proliferation (EC50; picomolar) (HER3 receptor) [picomolar] |
| --- | --- | --- |
| EGF (purified protein) (ligand) HHHHHHIEGRNSDSECPLSHDGYCLHDGVCMYIEALDKYACNCWGYIGERCQYRDLKWWELR | 1150 | – |
| Heregulin (purified protein) (ligand) SHLVKCAEKEKTFCVNGGECFMVKDLSNPSRYLCKCPNEFTGDRCQNYVMASFYKHLGIEFMEAEELY | – | 6150 |
